In the assay the target is ack1_mouse Tnk2 (UniProt O54967).

Experimental findings from IntAct's records for PubMed 16777958 are described below.

ack1_mouse Tnk2, sequence (O54967 whole entry): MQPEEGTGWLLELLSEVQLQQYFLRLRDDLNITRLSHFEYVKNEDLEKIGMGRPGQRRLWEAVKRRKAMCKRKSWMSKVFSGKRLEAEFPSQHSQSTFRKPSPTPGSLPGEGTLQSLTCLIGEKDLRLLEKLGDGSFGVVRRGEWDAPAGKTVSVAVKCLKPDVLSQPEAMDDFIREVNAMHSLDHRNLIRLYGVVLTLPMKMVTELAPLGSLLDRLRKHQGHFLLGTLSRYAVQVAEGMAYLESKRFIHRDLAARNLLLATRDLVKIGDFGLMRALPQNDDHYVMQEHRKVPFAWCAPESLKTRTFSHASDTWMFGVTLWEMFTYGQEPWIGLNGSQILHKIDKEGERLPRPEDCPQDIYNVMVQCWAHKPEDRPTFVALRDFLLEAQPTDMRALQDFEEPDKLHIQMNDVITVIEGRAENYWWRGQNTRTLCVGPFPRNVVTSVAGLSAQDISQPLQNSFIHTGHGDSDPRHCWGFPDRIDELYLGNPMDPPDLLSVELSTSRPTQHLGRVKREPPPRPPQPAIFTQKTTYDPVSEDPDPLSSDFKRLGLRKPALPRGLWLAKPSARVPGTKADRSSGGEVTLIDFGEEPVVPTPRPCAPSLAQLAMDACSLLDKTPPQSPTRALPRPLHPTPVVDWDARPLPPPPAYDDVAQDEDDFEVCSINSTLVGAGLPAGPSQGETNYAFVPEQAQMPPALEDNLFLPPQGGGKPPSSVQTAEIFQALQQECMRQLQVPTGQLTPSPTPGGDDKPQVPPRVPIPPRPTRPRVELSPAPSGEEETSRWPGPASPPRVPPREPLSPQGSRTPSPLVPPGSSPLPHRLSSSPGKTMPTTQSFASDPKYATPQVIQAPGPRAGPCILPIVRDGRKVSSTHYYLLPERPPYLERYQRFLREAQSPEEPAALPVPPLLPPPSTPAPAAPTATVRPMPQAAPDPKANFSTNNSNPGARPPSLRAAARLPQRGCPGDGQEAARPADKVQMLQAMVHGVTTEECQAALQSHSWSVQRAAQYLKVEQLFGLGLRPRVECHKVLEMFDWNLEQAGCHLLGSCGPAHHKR

As to “SH2/SH3 adapter protein NCK1 (Homo sapiens) (from UniProt P16333-1) R308A”, the “effect of a mutation on the interaction” value is recorded as “disrupting interaction strength”.
